Kd and fold change data for 3 substances are collected here from article PMC6100724, “Proteome‐wide analysis of phospho‐regulated PDZ domain interactions” (Molecular Systems Biology, 2018).

For experiment [1], the target named is FITC-HTNETEL, phosphomimetic (p-1) MCC peptide (human). In words: MST; FITC-labeled peptide fixed at 25-50 nM, DLG1 PDZ2 titrated (1:1 dilution series); 50 mM Tris-HCl pH 7.4, 0.1% Tween-20; KD from thermophoresis and T-Jump signal; n = 3.
The target of experiment [2] is FITC-…, phosphomimetic (p-6) TANC1 peptide (human). The description is as above.
The target in experiment [3] is Scribble PDZ1 (human, aa 719-829) (human) (UniProt Q14160). The experiment is described as follows: ITC; iTC200, 25°C, 20 mM HEPES pH 7.4; protein 50-100 µM in the cell, 0.64-3 mM peptide in the syringe; single-site fit, stoichiometry fixed to 0.8-1.1; triplicate.
Chain of Scribble PDZ1 (human, aa 719-829) (human) (Q14160 719-829): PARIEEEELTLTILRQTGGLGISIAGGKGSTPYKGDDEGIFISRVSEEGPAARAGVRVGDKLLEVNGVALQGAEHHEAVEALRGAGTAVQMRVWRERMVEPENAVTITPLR
Experiment [4] has as its target Scribble PDZ1, 719-829 (UniProt Q14160). The experiment is described as follows: ITC. The following applies: reference: unphosphorylated …; sites S730.

Chain of DLG1 PDZ2 (human DLG1 PDZ2 aa 311-407) (Q12959 311-407): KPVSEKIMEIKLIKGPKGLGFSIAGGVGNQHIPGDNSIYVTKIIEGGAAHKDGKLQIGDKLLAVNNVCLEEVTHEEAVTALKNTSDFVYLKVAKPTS
Chain of Scribble PDZ1, 719-829 (Q14160 whole entry, looked up, tested part not stated): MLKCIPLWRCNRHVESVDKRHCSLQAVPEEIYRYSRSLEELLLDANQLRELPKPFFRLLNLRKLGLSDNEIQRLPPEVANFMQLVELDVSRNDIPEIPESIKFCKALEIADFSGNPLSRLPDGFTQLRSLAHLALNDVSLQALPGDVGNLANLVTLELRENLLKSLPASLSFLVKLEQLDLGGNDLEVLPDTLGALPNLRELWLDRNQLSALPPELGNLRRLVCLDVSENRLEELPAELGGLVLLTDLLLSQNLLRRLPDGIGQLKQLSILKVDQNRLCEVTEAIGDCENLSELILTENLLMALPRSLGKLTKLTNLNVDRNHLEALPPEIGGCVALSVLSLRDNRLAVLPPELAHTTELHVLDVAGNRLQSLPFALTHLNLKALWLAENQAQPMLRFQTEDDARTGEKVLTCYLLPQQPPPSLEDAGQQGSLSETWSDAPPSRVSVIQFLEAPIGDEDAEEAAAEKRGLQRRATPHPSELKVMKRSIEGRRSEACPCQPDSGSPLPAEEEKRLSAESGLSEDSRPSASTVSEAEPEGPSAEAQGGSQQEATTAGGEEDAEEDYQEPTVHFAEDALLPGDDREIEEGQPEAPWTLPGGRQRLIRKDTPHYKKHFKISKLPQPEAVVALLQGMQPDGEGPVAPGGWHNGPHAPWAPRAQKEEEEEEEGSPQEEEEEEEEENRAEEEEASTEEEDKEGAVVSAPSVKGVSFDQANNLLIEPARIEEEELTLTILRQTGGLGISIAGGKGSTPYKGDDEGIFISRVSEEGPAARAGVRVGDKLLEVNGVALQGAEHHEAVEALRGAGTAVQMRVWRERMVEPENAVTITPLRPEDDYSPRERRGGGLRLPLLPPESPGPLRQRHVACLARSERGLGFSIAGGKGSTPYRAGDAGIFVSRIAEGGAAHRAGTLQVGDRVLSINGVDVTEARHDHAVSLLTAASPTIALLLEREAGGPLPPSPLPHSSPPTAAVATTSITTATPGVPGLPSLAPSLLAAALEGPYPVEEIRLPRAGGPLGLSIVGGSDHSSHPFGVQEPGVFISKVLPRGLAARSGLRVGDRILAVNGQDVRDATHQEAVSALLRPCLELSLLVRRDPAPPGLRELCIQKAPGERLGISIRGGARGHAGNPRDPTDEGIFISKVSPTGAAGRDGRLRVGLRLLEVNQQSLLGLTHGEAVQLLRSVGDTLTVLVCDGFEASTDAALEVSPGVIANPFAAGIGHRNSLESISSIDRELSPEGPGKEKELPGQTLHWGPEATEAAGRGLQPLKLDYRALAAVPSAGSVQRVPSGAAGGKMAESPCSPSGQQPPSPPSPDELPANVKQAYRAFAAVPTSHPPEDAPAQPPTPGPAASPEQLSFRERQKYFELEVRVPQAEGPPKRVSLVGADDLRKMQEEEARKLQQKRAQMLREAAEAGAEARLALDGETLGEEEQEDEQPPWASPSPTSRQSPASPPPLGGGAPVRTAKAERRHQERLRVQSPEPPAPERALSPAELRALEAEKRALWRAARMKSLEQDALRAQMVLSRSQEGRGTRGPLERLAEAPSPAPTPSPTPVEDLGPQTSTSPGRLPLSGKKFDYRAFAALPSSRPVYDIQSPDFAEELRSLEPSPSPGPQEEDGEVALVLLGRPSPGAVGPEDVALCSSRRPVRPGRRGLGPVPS

For orientation: Kd means the equilibrium constant for the complex coming apart. For the substance “DLG1 PDZ2 (human DLG1 PDZ2 aa 311-407) (from UniProt Q12959 311-407) (domain or fragment)”, the Kd in experiment [1] was 21 µM; in experiment [2], 5.1 µM. In turn, MAPK12 peptide … (unphosphorylated) came in with a Kd in experiment [3] of 1.2 µM. With “RPS6KA2 C-terminal 9 residues (from UniProt Q15349) MKRLTpSTRL”, the fold change result in experiment [4] is reported as “stronger”.
